In one data set the test system is PSMA+-cells (LNCaP). The experiment in a line: Cell surface binding and internalization experiments. In kind it is cell-based. The settings on record: 68Ga-labeled compounds, 30 nM, 45 min 37 °C, specific uptake by blockage with 500 μM 2-PMPA, mean ± SD n=3. The procedure: For internalization experiments, 10^5 cells per well were seeded in poly-L-lysine coated 24-well cell culture plates 24 h before incubation. After washing, the cells were incubated with 30 nM of the radiolabeled compound for 45 min at 37° C. Cellular uptake was terminated by washing 3 times with 1 mL of ice-cold PBS. To remove surface-bound radioactivity, cells were incubated twice with 0.5 mL glycine-HCl in PBS (50 mM, pH=2.8) for 5 min. The cells were washed with 1 mL of ice-cold PBS and lysed using 0.3 N NaOH (0.5 mL). The surface-bound and the internalized fractions were measured in a gamma counter. The cell uptake was calculated as percent of the initially added radioactivity bound to 10^5 cells [% ID/10^5 cells].

The target in a further data set is T1, PSMA (Homo sapiens, UniProt Q04609).
T1 construct: determined in vitro using PSMA^+-cells (LNCaP); host or cells: LNCaP cells
The settings on record: cited from earlier work.

A further data set in a line: in vivo. The settings on record: male, BALB/c nu/nu, mouse, iv, 0.06 nmol, total radioactivity; for tissue to tissue ratio at 1 h: LNCaP Tumor-to-Organ ratio; for tissue uptake at 1 h: Organ distribution. Also noted: species or system BALB/c nu/nu mice.
The subject of another data set is LNCaP xenograft tumors. The following applies: cited from earlier work.

Read-outs that look alike come from different tables or passages of the source. Where a SMILES comes first, the peptide text is derived from it. [ ]: non-standard residue; d: D form. The star is where a group is joined. ξ: configuration not given here. X1 = CN1/C(=C/C=C/C=C/C2=[N+](CCCCCC(=O)*)c3ccc(S(=O)(=O)O)cc3C2(C)C)C(C)(C)c2cc(S(=O)(=O)[O-])ccc21; X3 = CN1/C(=C/C=C/C=C/C2=[N+](CCCCCC(=O)*)c3ccc(S(=O)(=O)[O-])cc3C2(C)C)C(C)(C)c2cc(S(=O)(=O)O)ccc21; DOTA = O=C(O)CN1CCN(CC(=O)O)CCN(CC(=O)*)CCN(CC(=O)O)CC1; EuK = O=C(O)CC[C@H](NC(=O)N[C@@H](CCCCN*)C(=O)O)C(=O)O; X2 = O=C(O)CC[C@@H](NC(=O)N[C@H](CCCCN*)C(=O)O)C(=O)O; 2Nal = N[C@@H](Cc1ccc2ccccc2c1)C(=O)O; d2Nal = N[C@H](Cc1ccc2ccccc2c1)C(=O)O; Trx = NC[C@H]1CC[C@H](C(=O)O)CC1; ξK = NCCCCC(N)C(=O)O; βAla = NCCC(=O)O; Sar = CNCC(=O)O

Broadly, the Ki is a dissociation constant, usually derived from enzyme kinetics or from competition with a known ligand. The tissue uptake is the percentage of the injected dose found per gram of tissue. The term Kd denotes the concentration at which binding is half-saturated.

T1 sequence (Q04609 whole entry): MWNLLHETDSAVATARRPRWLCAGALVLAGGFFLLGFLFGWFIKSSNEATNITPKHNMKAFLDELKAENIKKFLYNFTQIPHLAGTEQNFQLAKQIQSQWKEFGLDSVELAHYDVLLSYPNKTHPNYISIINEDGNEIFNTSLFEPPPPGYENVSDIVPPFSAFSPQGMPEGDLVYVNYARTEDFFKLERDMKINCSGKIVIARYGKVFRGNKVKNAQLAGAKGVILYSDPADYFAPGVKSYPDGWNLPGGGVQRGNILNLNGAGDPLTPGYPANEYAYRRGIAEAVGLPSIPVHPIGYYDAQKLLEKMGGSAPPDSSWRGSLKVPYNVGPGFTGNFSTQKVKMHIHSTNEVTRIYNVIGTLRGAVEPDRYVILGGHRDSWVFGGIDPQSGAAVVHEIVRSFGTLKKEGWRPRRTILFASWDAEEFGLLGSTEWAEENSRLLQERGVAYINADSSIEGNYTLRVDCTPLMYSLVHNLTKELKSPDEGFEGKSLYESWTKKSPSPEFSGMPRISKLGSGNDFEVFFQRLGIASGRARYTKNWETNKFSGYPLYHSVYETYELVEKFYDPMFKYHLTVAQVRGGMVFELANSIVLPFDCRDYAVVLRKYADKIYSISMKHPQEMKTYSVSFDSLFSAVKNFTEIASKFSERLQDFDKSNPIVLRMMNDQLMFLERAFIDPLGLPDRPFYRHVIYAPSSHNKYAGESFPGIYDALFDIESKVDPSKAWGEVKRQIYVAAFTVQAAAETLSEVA

Regarding `CN(CC(=O)NC[C@H]1CC[C@H](C(=O)N[C@@H](Cc2ccc3ccccc3c2)C(=O)NCCCC[C@H](NC(=O)N[C@@H](CCC(=O)O)C(=O)O)C(=O)O)CC1)C(=O)CN(C)C(=O)CN(C)C(=O)CN(C)C(=O)CN(C)C(=O)[C@H](CCCCNC(=O)CN1CCN(CC(=O)O)CCN(CC(=O)O)CCN(CC(=O)O)CC1)NC(=O)CN(C)C(=O)CN(C)C(=O)CN(C)C(=O)CN(C)C(=O)CN(C)C(=O)CCNC(=O)CCCCC[N+]1=C(/C=C/C=C/C=C2/N(C)c3ccc(S(=O)(=O)O)cc3C2(C)C)C(C)(C)c2cc(S(=O)(=O)[O-])ccc21` [BP-1, Glu-urea-Lys-2-Nal-Chx-Sar5-Lys(DOTA)-Sar5-bAla-sulfoCy5] ({X3-βAla}-[Sar][Sar][Sar][Sar][Sar]K(DOTA)[Sar][Sar][Sar][Sar][Sar][Trx][2Nal]-EuK), in the data set with PSMA+-cells (LNCaP), the “Specifically cell surface bound” value was found to be 1.3 ± 0.6 % AR/10^5 cells and the Specifically internalized is reported as 1.1 ± 1.0 % AR/10^5 cells.

As for `CN(CC(=O)NC[C@H]1CC[C@H](C(=O)N[C@@H](Cc2ccc3ccccc3c2)C(=O)NCCCC[C@H](NC(=O)N[C@@H](CCC(=O)O)C(=O)O)C(=O)O)CC1)C(=O)CN(C)C(=O)CN(C)C(=O)CN(C)C(=O)CN(C)C(=O)[C@H](CCCCNC(=O)CCCCC[N+]1=C(/C=C/C=C/C=C2/N(C)c3ccc(S(=O)(=O)O)cc3C2(C)C)C(C)(C)c2cc(S(=O)(=O)[O-])ccc21)NC(=O)CN(C)C(=O)CN(C)C(=O)CN(C)C(=O)CN(C)C(=O)CN(C)C(=O)CCNC(=O)CN1CCN(CC(=O)O)CCN(CC(=O)O)CCN(CC(=O)O)CC1` [BP-4, Glu-urea-Lys-2-Nal-Chx-Sar5-Lys(sulfoCy5)-Sar5-bAla-DOTA] ({DOTA-βAla}-[Sar][Sar][Sar][Sar][Sar]K(X3)[Sar][Sar][Sar][Sar][Sar][Trx][2Nal]-EuK), in the data set on PSMA+-cells (LNCaP), the “Specifically cell surface bound” value was 0.8 ± 1.0 % AR/10^5 cells and the Specifically internalized came out at 0.4 ± 0.7 % AR/10^5 cells.

On to `O=C(O)CC[C@H](NC(=O)N[C@@H](CCCCNC(=O)[C@H](Cc1ccc2ccccc2c1)NC(=O)[C@H]1CC[C@H](CNC(=O)CN2CCN(CC(=O)O)CCN(CC(=O)O)CCN(CC(=O)O)CC2)CC1)C(=O)O)C(=O)O` [PSMA-617, reference compound], for which, in the data set on PSMA+-cells (LNCaP), the “Specifically cell surface bound” value is recorded as 0.3 ± 0.1 % AR/10^5 cells and the Specifically internalized is 1.2 ± 0.6 % AR/10^5 cells. Besides, on PSMA (ki-value for PSMA-617 from Benesova et al. (3), read-out: ki free ligands), the Ki is 2.3 ± 2.9 nM.

In the case of `CN(CC(=O)NC[C@H]1CC[C@H](C(=O)N[C@H](Cc2ccc3ccccc3c2)C(=O)NCCCC[C@@H](NC(=O)N[C@H](CCC(=O)O)C(=O)O)C(=O)O)CC1)C(=O)CN(C)C(=O)CN(C)C(=O)CN(C)C(=O)CN(C)C(=O)C(CCCCNC(=O)CN1CCN(CC(=O)O)CCN(CC(=O)O)CCN(CC(=O)O)CC1)NC(=O)CN(C)C(=O)CN(C)C(=O)CN(C)C(=O)CN(C)C(=O)CN(C)C(=O)CCNC(=O)CCCCC[N+]1=C(/C=C/C=C/C=C2/N(C)c3ccc(S(=O)(=O)[O-])cc3C2(C)C)C(C)(C)c2cc(S(=O)(=O)O)ccc21` (stereo partly shown) [^177Lu-BP-1, metal not drawn] ({X1-βAla}-[Sar][Sar][Sar][Sar][Sar][ξK](DOTA)[Sar][Sar][Sar][Sar][Sar][Trx][d2Nal]-X2), the tissue to tissue ratio at 1 h in “in vivo” (Blood) is 40 ± 4.75; in “in vivo” (Brain) it was 423 ± 81.3; in the data set “in vivo” (Heart), 64.5 ± 12.8; in “in vivo” (Intestine), 76.3 ± 13.1; in “in vivo” (Kidney), 0.34 ± 0.04; in the data set “in vivo” (Liver), 27.8 ± 5.94. For the same compound, the results for the tissue to tissue ratio at 1 h in “in vivo” (Lung), in “in vivo” (Muscle) and in “in vivo” (Spleen) were 18.2 ± 4.54, 165 ± 31.4 and 8.05 ± 1.05, respectively. The tissue uptake at 1 h is 0.16 ± 0.02 %ID/g in the data set “in vivo” (Blood); 0.02 ± 0.001 %ID/g in the data set “in vivo” (Brain); 0.1 ± 0.004 %ID/g in “in vivo” (Heart); 0.08 ± 0.01 %ID/g in “in vivo” (Intestine); 18.9 ± 4.56 %ID/g in “in vivo” (Kidney); 0.24 ± 0.03 %ID/g in “in vivo” (Liver). The tissue uptake at 1 h amounted to 0.38 ± 0.03 %ID/g in “in vivo” (Lung), 0.04 ± 0.004 %ID/g in “in vivo” (Muscle), 0.78 ± 0.03 %ID/g in the data set “in vivo” (Spleen) and 5.85 ± 1.16 %ID/g in the data set “in vivo” (Tumor LNCaP).

Regarding `CN(CC(=O)NC[C@H]1CC[C@H](C(=O)N[C@H](Cc2ccc3ccccc3c2)C(=O)NCCCC[C@@H](NC(=O)N[C@H](CCC(=O)O)C(=O)O)C(=O)O)CC1)C(=O)CN(C)C(=O)CN(C)C(=O)CN(C)C(=O)CN(C)C(=O)C(CCCCNC(=O)CCCCC[N+]1=C(/C=C/C=C/C=C2/N(C)c3ccc(S(=O)(=O)[O-])cc3C2(C)C)C(C)(C)c2cc(S(=O)(=O)O)ccc21)NC(=O)CN(C)C(=O)CN(C)C(=O)CN(C)C(=O)CN(C)C(=O)CN(C)C(=O)CCNC(=O)CN1CCN(CC(=O)O)CCN(CC(=O)O)CCN(CC(=O)O)CC1` (stereo partly shown) [^177Lu-BP-4, metal not drawn] ({DOTA-βAla}-[Sar][Sar][Sar][Sar][Sar][ξK](X1)[Sar][Sar][Sar][Sar][Sar][Trx][d2Nal]-X2), the tissue to tissue ratio at 1 h in the data set “in vivo” (Blood) amounted to 25.9 ± 9.14; in “in vivo” (Brain), 275 ± 63.6; in the data set “in vivo” (Heart) it was 48.6 ± 15.7; in the data set “in vivo” (Intestine), 49.3 ± 18.2; in the data set “in vivo” (Kidney), 0.17 ± 0.08; in “in vivo” (Liver), 36.1 ± 6.7. The tissue to tissue ratio at 1 h in “in vivo” (Lung) was 12.1 ± 2.03; in the data set “in vivo” (Muscle) it was 110 ± 51.7; in the data set “in vivo” (Spleen) it was 7.83 ± 0.85. Further, the tissue uptake at 1 h in “in vivo” (Blood) was 0.23 ± 0.08 %ID/g; in “in vivo” (Brain) it was 0.02 ± 0.002 %ID/g; in the data set “in vivo” (Heart) it was 0.12 ± 0.02 %ID/g; in “in vivo” (Intestine), 0.12 ± 0.04 %ID/g; in the data set “in vivo” (Kidney) it was 37.5 ± 12.1 %ID/g; in the data set “in vivo” (Liver), 0.14 ± 0.01 %ID/g. In addition, the tissue uptake at 1 h in “in vivo” (Lung) came out at 0.4 ± 0.04 %ID/g; in “in vivo” (Muscle), 0.06 ± 0.002 %ID/g; in “in vivo” (Spleen) it was 0.59 ± 0.12 %ID/g; in “in vivo” (Tumor LNCaP), 4.3 ± 0.27 %ID/g.

Turning to `O=C([O-])CN1CCN(CC(=O)[O-])CCN(CC(=O)NCC2CCC(C(=O)N[C@@H](Cc3ccc4ccccc4c3)C(=O)NCCCC[C@H](NC(=O)N[C@@H](CCC(=O)O)C(=O)O)C(=O)O)CC2)CCN(CC(=O)[O-])CC1.[177Lu+3]` (stereo partly shown) [^177Lu-PSMA-617], the “tumor uptake in LNCaP xenograft tumors, reference compounds” value in the data set on LNCaP xenograft tumors (reference values (4), 1 h p.i. printed for 177Lu-PSMA-617) is listed as 8.47±4.09 % ID/g. Also, in the data set with LNCaP xenograft tumors (reference values (4)), the “kidney uptake, reference compounds” value was 137.2±77.8 % ID/g.

Consider “[Glu-urea-Lys(Ahx)]2-HBED-CC [^68Ga-PSMA-10]”, for which the Kd on PSMA (radioligand 68Ga-PSMA-10, reference (1)) is 3.8 nM.

Consider “^68Ga-Glu-urea-Lys-2-Nal-Chx-Lys(IRDye800CW)-DOTA”, for which the “kidney uptake, reference compounds” value with LNCaP xenograft tumors (mouse, in vivo) is 65.64±6.60 % ID/g.

Values taken from patent US20250360236A1, “PROSTATE SPECIFIC MEMBRANE ANTIGEN (PSMA) LIGANDS” (Deutsches Krebsforschungszentrum Stiftung des öffentlichen …, priority 2022, published 2025).
